According to patent US20210371491A1, “CHIMERIC ANTIGEN RECEPTORS THAT BIND TO PROSTATE SPECIFIC MEMBRANE ANTIGEN” (Albert-Ludwigs-Universitaet Freiburg, priority 2018, published 2021):

Molecular target: prostate specific membrane antigen (PSMA) (UniProt Q04609)
Experiment: cell-based or functional assay

Sequence of prostate specific membrane antigen (PSMA) (Q04609 whole entry, form in doubt): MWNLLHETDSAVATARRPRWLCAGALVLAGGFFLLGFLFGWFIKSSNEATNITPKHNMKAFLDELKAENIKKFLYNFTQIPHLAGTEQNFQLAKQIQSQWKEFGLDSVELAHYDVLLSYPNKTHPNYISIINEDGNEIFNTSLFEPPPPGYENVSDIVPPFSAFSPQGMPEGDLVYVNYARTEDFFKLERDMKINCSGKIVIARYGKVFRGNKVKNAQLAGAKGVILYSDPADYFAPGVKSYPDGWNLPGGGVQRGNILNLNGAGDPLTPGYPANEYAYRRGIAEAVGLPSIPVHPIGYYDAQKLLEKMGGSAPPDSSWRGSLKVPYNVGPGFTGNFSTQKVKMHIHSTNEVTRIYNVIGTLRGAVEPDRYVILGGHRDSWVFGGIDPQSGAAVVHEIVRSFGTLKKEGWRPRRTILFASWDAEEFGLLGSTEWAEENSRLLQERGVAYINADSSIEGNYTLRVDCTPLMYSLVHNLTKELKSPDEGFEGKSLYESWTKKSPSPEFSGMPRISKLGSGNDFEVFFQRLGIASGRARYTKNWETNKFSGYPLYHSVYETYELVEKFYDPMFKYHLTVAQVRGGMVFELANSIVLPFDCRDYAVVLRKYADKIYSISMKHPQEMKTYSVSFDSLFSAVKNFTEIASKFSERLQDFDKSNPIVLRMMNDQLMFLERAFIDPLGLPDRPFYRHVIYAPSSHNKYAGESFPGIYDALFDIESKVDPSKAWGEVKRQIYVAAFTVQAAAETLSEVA

CAR28 (J591), anti-PSMA CAR with scFv derived from antibody J591
percentage of CD69-positive CAR Jurkat cells after 24 h stimulation with PSMA-positive tumor cells (C4-2, LNCaP), E:T 1:1: 70%
